From paper PMC10220053

biological target: Eaf3^MRG–Rco1^PHD1–SID complex (S. cerevisiae) (UniProt Q12432); assay: ITC; H3 1–12 peptides with the Eaf3^MRG–Rco1^PHD1–SID complex or with Rco1^PHD1 alone
Sequence (Q12432 218-401, chain 1 of 2): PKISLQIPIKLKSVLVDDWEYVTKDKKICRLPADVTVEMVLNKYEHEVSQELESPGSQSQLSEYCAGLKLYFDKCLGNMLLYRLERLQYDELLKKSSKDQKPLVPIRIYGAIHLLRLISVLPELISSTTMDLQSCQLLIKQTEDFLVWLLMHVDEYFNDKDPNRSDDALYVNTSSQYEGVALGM
Sequence (Q04779 240-376, chain 2 of 2, further chain): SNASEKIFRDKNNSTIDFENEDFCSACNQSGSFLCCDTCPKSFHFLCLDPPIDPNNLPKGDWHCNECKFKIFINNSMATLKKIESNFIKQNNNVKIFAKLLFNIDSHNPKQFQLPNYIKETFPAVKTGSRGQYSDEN

Kd [µM] | Substance
22 | H3K4me0^1–12 peptide (from UniProt P61830 2-13)
65 | H3K4me1^1–12 peptide (from UniProt P61830 2-13)
360 | H3K4me2^1–12 peptide (from UniProt P61830 2-13)
